This note sets out measurements from patent US20080119424A1 (published 2008).

In assay [1] the target is T1, endogenous RARα (Retinoic Acid Receptor alpha) of mouse cells (mouse (endogenous in mouse embryonic …, UniProt P11416 1-462, limits assumed)).
T1 construct: Endogenous protein detected by immunoblot with anti-RARα (C-20)
T1 sequence (looked up): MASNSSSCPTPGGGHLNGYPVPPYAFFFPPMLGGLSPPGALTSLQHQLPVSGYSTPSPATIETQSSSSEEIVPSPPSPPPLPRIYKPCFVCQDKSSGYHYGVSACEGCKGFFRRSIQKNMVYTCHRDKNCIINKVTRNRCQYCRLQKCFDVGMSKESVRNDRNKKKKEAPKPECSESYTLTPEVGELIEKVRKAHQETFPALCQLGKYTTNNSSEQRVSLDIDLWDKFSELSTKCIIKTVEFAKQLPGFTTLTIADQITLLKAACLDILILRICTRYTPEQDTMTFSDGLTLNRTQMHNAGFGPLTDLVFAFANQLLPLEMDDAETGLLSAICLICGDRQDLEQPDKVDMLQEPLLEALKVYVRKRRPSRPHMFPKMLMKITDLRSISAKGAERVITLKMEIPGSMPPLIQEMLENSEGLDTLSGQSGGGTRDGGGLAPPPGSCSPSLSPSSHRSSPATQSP
In words: co-immunoprecipitation, immunoblot for RARα. For orientation: In western blotting, separated proteins are transferred to a membrane and probed.
Protocol: Proteins were transferred to polyvinylidine difluoride membranes (Immobilon P, Millipore) and Western blots were probed with the indicated antibodies. For TAP (co-)immunoprecipitations cells were lysed in ELB buffer (0.25 M NaCl, 0.1% NP-40, 50 mM HEPES pH 7.3) supplemented with protease inhibitors and PMSF.

Another assay has as its target T2, VP16-RARα LBD (UniProt P10276 154-462).
T2 construct: domain: LBD
T2 sequence: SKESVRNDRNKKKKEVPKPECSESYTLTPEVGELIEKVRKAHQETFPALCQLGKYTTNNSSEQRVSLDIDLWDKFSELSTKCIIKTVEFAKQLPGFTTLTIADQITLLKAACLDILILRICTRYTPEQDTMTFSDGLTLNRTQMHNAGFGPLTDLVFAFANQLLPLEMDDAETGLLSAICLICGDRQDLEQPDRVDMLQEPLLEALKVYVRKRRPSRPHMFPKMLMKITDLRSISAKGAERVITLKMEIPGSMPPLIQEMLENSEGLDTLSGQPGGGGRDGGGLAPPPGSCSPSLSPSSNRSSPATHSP
In words: mammalian two-hybrid assay (luciferase) in the presence of RA.

Changes are numbered by the printed parent chain.

B1: TAP-PRAME-LREVV mutant protein (other)
chain: MERRRLRGSIQSRYISMSVWTSPRRLVELAGQSLLKDEALAIAALELLPRELFPPLFMAAFDGRHSQTLKAMVQAWPFTCLPLGVLMKGQHLHLETFKAVLDGLDVLLAQEVRPRRWKLQVLDLRKNSHQDFWTVWSGNRASLYSFPEPEAAQPMTKKRKVDGLSTEAEQPFIPVEVLVDLFLKEGACDELFSYLIEKVKRKKNVLRLCCKKLKIFAMPMQDIKMILKMVQLDSIEDLEVTCTWKLPTLAKFSPYLGQMINLRRLLLSHIHASSYISPEKEEQYIAQFTSQFLSLQCLQALYVDSLFFLRGRLDQLLRHVMNPLETLSITNCRLSEGDVMHLSQSPSVSQLSVLSLSGVMLTDVSPEPLQALLERASATLQDLVFDECGITDDQLLALLPSLSHCSQLTTLSFYGNSISISALQSLLQHLIGLSNLTHVLYPVPLESYEDIHGTLHLERLAYLHARLREVVCELGRPSMVWLSANPCPHCGDRTFYDPEPILCPCFMPN
notes: not shown: TAP tag
As to B1, the binding result in assay [1] is given as “no binding”.

B2: PRAME-ΔLXXLL (other)
chain: B1 chain with L107V, L108V, L262V, L316V, L317V, L369V, L398V, L399V, L426V, L427V
notes: also called PRAME mutant in which all 7 NR boxes were mutated
On to B2, for which the binding result in assay [1] is “no binding”.

B3: Gal4-… (416-509) (other, not shown: large carriers; small tags and cut ends)
chain: NSISISALQSLLQHLIGLSNLTHVLYPVPLESYEDIHGTLHLERLAYLHARLREVVCELGRPSMVWLSANPCPHCGDRTFYDPEPILCPCFMPN
notes: also called box 7 mutant
Turning to B3, the binding result in the assay with VP16-RARα LBD is “no binding”.
